Experimental data from publication PMC12406181 (2025).

Target: T1, HER2-DIVMP (HER2 domain IV model receptor) domain IV fragment (Homo sapiens, UniProt P04626)
T1 chain: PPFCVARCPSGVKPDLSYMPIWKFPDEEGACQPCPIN
Assay: fluorescence spectroscopy titration

B1: A9-PEG-A9 dimer (peptide)
chain: QDVNTAVAW
modifications: not fully specified; two A9 chains N-terminally linked via PEG (1 kDa), C-terminal amide; HER2-DIVMP is a synthetic two-chain disulfide-linked peptide
Kd: 5.7 nM
